Targets include GST-Daam1 CT WT (human, UniProt Q9Y4D1 490-1078); GST-Daam1 CT L1040A (human, UniProt Q9Y4D1 490-1078, L1040A); His6-Daam1 CT (human, UniProt Q9Y4D1 490-1078).
Experiment in all cases: pull-down
A further experiment deals with T1, His6-Fli-I G1–6 (human, UniProt Q13045 461-1269).
T1 sequence: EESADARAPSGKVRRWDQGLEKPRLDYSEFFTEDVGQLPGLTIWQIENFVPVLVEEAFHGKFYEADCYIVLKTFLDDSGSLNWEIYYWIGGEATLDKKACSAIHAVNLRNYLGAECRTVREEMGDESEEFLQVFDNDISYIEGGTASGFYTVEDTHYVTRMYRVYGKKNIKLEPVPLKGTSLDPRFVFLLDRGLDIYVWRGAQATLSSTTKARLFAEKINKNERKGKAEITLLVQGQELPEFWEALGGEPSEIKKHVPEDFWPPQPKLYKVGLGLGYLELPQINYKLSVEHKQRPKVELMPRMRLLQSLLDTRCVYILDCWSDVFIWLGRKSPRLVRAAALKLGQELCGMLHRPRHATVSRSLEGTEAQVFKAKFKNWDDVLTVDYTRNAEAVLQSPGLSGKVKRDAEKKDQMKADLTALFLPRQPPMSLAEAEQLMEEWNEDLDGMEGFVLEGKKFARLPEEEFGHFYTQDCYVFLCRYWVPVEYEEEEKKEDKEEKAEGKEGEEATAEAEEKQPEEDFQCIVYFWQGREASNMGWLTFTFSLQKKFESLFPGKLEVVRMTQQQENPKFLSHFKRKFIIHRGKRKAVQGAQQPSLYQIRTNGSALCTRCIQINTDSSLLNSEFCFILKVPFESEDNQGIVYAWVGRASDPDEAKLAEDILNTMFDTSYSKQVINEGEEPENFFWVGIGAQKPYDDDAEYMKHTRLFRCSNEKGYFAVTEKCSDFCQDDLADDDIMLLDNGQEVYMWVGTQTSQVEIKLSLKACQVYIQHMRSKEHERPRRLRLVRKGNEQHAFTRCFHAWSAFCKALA

The target in another experiment is T2, His6-Daam1 NT (human, UniProt Q9Y4D1 41-477).
T2 sequence: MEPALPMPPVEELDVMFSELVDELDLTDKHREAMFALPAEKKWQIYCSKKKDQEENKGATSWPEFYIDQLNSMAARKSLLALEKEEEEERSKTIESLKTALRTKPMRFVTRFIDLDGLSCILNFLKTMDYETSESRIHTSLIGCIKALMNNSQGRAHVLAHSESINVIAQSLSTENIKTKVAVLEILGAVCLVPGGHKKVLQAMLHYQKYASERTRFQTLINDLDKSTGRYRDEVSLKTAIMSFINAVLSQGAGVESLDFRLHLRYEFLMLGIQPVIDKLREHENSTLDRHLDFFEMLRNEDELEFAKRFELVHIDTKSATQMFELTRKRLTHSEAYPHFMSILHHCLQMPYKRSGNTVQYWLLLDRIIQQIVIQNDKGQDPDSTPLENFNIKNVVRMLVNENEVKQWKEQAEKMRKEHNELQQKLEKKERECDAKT

B1: GST-Daam1 DAD (domain or fragment)
chain: NMRKKKEEEERRARMEAQLKEQRERERKMRKAKENSEESGEFDDLVSALRSGEVFDKDLSKLKRNRKRITNQMTDSSRERPITKLNF
For the molecule B1, the binding result with His6-Fli-I G1–6 and with His6-Daam1 NT was “binds” throughout.

B2: His6-Fli-I G4–6 (domain or fragment)
chain: KKDQMKADLTALFLPRQPPMSLAEAEQLMEEWNEDLDGMEGFVLEGKKFARLPEEEFGHFYTQDCYVFLCRYWVPVEYEEEEKKEDKEEKAEGKEGEEATAEAEEKQPEEDFQCIVYFWQGREASNMGWLTFTFSLQKKFESLFPGKLEVVRMTQQQENPKFLSHFKRKFIIHRGKRKAVQGAQQPSLYQIRTNGSALCTRCIQINTDSSLLNSEFCFILKVPFESEDNQGIVYAWVGRASDPDEAKLAEDILNTMFDTSYSKQVINEGEEPENFFWVGIGAQKPYDDDAEYMKHTRLFRCSNEKGYFAVTEKCSDFCQDDLADDDIMLLDNGQEVYMWVGTQTSQVEIKLSLKACQVYIQHMRSKEHERPRRLRLVRKGNEQHAFTRCFHAWSAFCKALA
B2: the binding result with GST-Daam1 CT WT, in the experiment with GST-Daam1 CT L1040A and with His6-Daam1 CT was “binds” throughout.

B3: GST-Fli-I G4–6 (domain or fragment)
chain: B2 chain
With B3, the binding result in the experiment with His6-Daam1 CT was “binds”.

B4: GST-Daam1 NT (domain or fragment)
chain: T2 sequence
Turning to B4, the binding result in the experiment with His6-Daam1 CT is recorded as “binds”.

For the origin of these results see paper PMC2871490 (The Journal of Biological Chemistry, 2010).
